For assay [1], the system named is NK92 cells. Put plainly: IFNγ production by NK92 cells. Type of assay: cell-based, human. Particulars: TJW, unpublished.
In assay [2] the target is T1, EAT-2 (Homo sapiens, UniProt O14796).
T1 sequence (O14796 1-132): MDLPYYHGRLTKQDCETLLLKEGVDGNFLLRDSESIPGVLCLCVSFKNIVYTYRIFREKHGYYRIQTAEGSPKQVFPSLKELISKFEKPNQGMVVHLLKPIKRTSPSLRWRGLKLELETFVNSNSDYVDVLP
Put plainly: EAT-2 expression in NK92 after RNA interference. Type of assay: cell-based. Particulars: shRNA, NK92 cells; from 0.44 μM. On the procedure: Lentiviral constructs expressing gene-specific shRNAs in vector pLKO.1 were obtained from Open Biosystems. […] As a non-targeting control, the hairpin sequence 5′-[…] was expressed in pLKO.1. Lentiviral particles were produced through polyethylenimine (PEI-Sigma) co-transfection of 293 T cells with pLKO.1 along with packaging vectors pMD2.G and pSPAX2 (Addgene; Didier Trono Laboratory). Virus was produced in RPMI 1640/10% heat-inactivated FCS for 48–72 hours. Viral supernatants were collected and NK92 cells were transduced twice overnight in the presence of 1000 U/ml IL-2. Cells with stable shRNA expression were selected using 3 μg/ml puromycin (Invitrogen) for 72 hours prior to use in functional assays.
For quantitation of protein expression, NK92 cell lysates were prepared using buffer (150 mM NaCl, 20 mM Tris-HCl pH 7.4, 10% glycerol, 2 mM EDTA, 10 mM NaF, 1 mM PMSF) containing 0.5% Triton X-100. Lysates were resolved by SDS-PAGE under reducing conditions using Novex gradient gels and transferred to nitrocellulose membranes for western blotting by standard protocols. […] SHP-2 levels in 10^5 cell equivalents were analysed in a similar manner with recombinant SHP-2 N+C as a standard (25, 50 and 100 ng) and anti-SHP-2 (Cell Signaling #3752). […] Quantitation of protein expression was performed using LI-COR Odyssey Sa software version 1.0. […]

A short description of assay [3]: Pull-down with phosphorylated CD244 ITSM1 from NK cell lysates, LC-MS/MS. The format is binding. Particulars: human NK cell lysates; compared with control phosphopeptide SHIP-1 Y865. On the procedure:
For pull-down of associated proteins, streptavidin Sepharose (GE Healthcare) was pre-coated with saturating amounts of peptide or EAT-2. NK92 cells (4×10^8) were treated with 500 μM pervanadate for 15 minutes, then lysed in PBS, 1% Triton X-100, 1 mM sodium orthovanadate in the presence of mammalian protease inhibitor solution (Sigma). Lysates were pre-cleared by centrifugation, followed by incubation with streptavidin Sepharose. Peptide or EAT-2-coated streptavidin beads were incubated with NK92 lysates for 2 hours at 4°C with rotation. Beads were washed once with 15 ml ice cold PBS/1% (v/v) Triton X-100. Bound protein was eluted using 100 mM glycine-HCl pH 2.5.
Protein samples were prepared for mass spectrometry as described previously. Briefly, eluted proteins were spun onto the membranes of Vivacon 500 filters (10,000 MWCO – Sartorius). Membranes were washed once with PBS then proteins were denatured with 8 M urea, reduced with 10 mM DTT in 25 mM ammonium bicarbonate buffer, followed by alkylation with 50 mM iodoacetamide. Proteins were then digested overnight with trypsin. Tryptic peptides were then eluted from the membrane and analyzed on an Ultimate 3000 HPLC-coupled Orbitrap XL mass spectrometer. Proteins were identified by liquid chromatography-coupled tandem mass-spectrometry (LC-MS/MS). Raw data files were converted to mzXML format using ReADW (v. 4.2.1) and submitted to the Central Proteomics Facilities Pipeline for database comparison and peptide identification. Searching against the International Protein Index (IPI) human protein sequence database for protein identification, protein and peptide hits were statistically validated by applying a 1% false discovery rate (FDR) by searching against a concatenated target/decoy database. Datasets were searched with variable peptide modifications for phosphotyrosine, phosphoserine, phosphothreonine, oxidation of methionine and deamination.
Protein identification data were exported into ProteinCenter (v3.8.3013 – Thermo Fisher) for filtering and annotation. Results were filtered to remove any proteins with less than 3 unique peptides, less than 10 percent sequence coverage, or median protein probability scores less than 0.5. To establish sample specificity, any protein with at least 10-fold greater sequence coverage in one sample compared with the other was considered to be specific for that sample.
Similarly, differences in specificity of inhibitory SH2 domain containing proteins for ITSMs are relevant to understanding mechanisms of inhibition by ITSMs. We focused on CD244 ITSMs to establish general paradigms.

B1: PLCγ2: phospholipase C gamma-2 (protein)
chain: MSTTVNVDSLAEYEKSQIKRALELGTVMTVFSFRKSTPERRTVQVIMETRQVAWSKTADKIEGFLDIMEIKEIRPGKNSKDFERAKAVRQKEDCCFTILYGTQFVLSTLSLAADSKEDAVNWLSGLKILHQEAMNASTPTIIESWLRKQIYSVDQTRRNSISLRELKTILPLINFKVSSAKFLKDKFVEIGAHKDELSFEQFHLFYKKLMFEQQKSILDEFKKDSSVFILGNTDRPDASAVYLHDFQRFLIHEQQEHWAQDLNKVRERMTKFIDDTMRETAEPFLFVDEFLTYLFSRENSIWDEKYDAVDMQDMNNPLSHYWISSSHNTYLTGDQLRSESSPEAYIRCLRMGCRCIELDCWDGPDGKPVIYHGWTRTTKIKFDDVVQAIKDHAFVTSSFPVILSIEEHCSVEQQRHMAKAFKEVFGDLLLTKPTEASADQLPSPSQLREKIIIKHKKLGPRGDVDVNMEDKKDEHKQQGELYMWDSIDQKWTRHYCAIADAKLSFSDDIEQTMEEEVPQDIPPTELHFGEKWFHKKVEKRTSAEKLLQEYCMETGGKDGTFLVRESETFPNDYTLSFWRSGRVQHCRIRSTMEGGTLKYYLTDNLTFSSIYALIQHYRETHLRCAEFELRLTDPVPNPNPHESKPWYYDSLSRGEAEDMLMRIPRDGAFLIRKREGSDSYAITFRARGKVKHCRINRDGRHFVLGTSAYFESLVELVSYYEKHSLYRKMRLRYPVTPELLERYNMERDINSLYDVSRMYVDPSEINPSMPQRTVKALYDYKAKRSDELSFCRGALIHNVSKEPGGWWKGDYGTRIQQYFPSNYVEDISTADFEELEKQIIEDNPLGSLCRGILDLNTYNVVKAPQGKNQKSFVFILEPKQQGDPPVEFATDRVEELFEWFQSIREITWKIDTKENNMKYWEKNQSIAIELSDLVVYCKPTSKTKDNLENPDFREIRSFVETKADSIIRQKPVDLLKYNQKGLTRVYPKGQRVDSSNYDPFRLWLCGSQMVALNFQTADKYMQMNHALFSLNGRTGYVLQPESMRTEKYDPMPPESQRKILMTLTVKVLGARHLPKLGRSIACPFVEVEICGAEYDNNKFKTTVVNDNGLSPIWAPTQEKVTFEIYDPNLAFLRFVVYEEDMFSDPNFLAHATYPIKAVKSGFRSVPLKNGYSEDIELASLLVFCEMRPVLESEEELYSSCRQLRRRQEELNNQLFLYDTHQNLRNANRDALVKEFSVNENQLQLYQEKCNKRLREKRVSNSKFYS
As to B1, the “effect on IFNγ production by NK92 cells” value in assay [1] is on record as “activating”.

B2: EAT-2: small SH2 domain containing adapter protein (protein)
chain: T1 sequence (O14796 1-132)
modifications: left off: His tag, end not stated, state not stated
notes: small SH2 domain containing adapter protein
Regarding B2, in assay [2], the “intracellular EAT-2 concentration after 50% knockdown” value was “approximately 0.2 μM”. Moreover, the “pull-down by CD244 ITSM1” value in assay [3] was “identifying SAP and EAT-2”.
